Assay results as given in patent publication US20210340207A1 (Merck Sharp & Dohme, published 2021).
*1 amine or outer side, *2 acyl side, *3 side chain or, on linkers, in order; H or OH if unused. Side-chain parts run from the residue outwards. [ ]: non-standard residue; d: D form. pAMF = para-azidomethylphenylalanine, [N-]=[N+]=NCc1ccc(C[C@H](N[*:1])C(=O)[*:2])cc1

Tests used:
[1] = target: T1, Cynomolgus/Rhesus IL-2Rβ, His tag (Table 10) (cynomolgus monkey / rhesus monkey, UniProt Q38J85 27-240); assay: SPR (Biacore T200), receptor captured on anti-histidine surface
T1 sequence: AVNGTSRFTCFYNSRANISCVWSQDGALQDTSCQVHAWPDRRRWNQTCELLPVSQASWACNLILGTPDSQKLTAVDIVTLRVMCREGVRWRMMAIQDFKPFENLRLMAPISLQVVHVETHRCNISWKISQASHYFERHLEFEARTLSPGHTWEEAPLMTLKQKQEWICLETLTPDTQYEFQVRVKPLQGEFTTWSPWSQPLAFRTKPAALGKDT
Experimental: (§1) A Surface Plasmon Resonance (SPR) assay on a Biacore T200 (GE Healthcare) instrument was used to determine the monovalent affinities of pegylated aldesleukin variants against polyhistidine-tagged or Fc-tagged IL-2 Receptors. Biacore T200 Evaluation Software was used to fit each titration series to a 1:1 binding model or steady state affinity. The association (kₒₙ, M⁻¹ s⁻¹) and dissociation (koff, s⁻¹) rate constants were determined for each set of titrations and used to calculate the dissociation constant, KD=koff/kₒₙ, of each sample against each receptor. koff/kₒₙ values are not reported herein.
(§2) To measure the affinity of CON1 and aldesleukin for IL-2R subunits, receptors were captured on either an anti-histidine or anti-hu Fc antibody surface. […] CON1 has a six-fold lower affinity for Human and Cynomolgus/Rhesus IL-2-Rβ than aldesleukin.

[2] = target: T2, Human IL-2Rβ, His tag (Table 10) (human, UniProt P14784 27-239, limits assumed); assay: as above
T2 construct: not shown: polyhistidine tag
T2 sequence (looked up): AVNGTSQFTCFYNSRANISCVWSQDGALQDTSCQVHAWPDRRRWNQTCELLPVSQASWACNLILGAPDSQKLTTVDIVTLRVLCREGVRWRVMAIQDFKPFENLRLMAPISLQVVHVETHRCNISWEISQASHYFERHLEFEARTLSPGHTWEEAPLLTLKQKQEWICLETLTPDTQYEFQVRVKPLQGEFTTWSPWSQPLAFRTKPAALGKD
Experimental: as §1, §2

[3] = target: T3, human IL-2Rαβγc (on Kit225-STAT5 reporter cells, NK-92 cells, primary Treg cells) (human, UniProt P01589 22-272; P14784 27-551; P31785 23-369); assay: cell-based or functional assay
T3 sequence (looked up) 1: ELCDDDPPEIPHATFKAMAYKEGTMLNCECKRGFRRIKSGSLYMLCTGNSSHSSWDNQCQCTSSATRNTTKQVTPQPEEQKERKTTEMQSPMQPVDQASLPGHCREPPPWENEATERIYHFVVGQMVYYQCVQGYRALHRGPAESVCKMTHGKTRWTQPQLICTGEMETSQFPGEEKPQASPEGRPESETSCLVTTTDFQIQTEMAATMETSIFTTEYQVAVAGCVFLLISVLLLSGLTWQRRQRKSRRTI
T3 sequence (looked up) 2: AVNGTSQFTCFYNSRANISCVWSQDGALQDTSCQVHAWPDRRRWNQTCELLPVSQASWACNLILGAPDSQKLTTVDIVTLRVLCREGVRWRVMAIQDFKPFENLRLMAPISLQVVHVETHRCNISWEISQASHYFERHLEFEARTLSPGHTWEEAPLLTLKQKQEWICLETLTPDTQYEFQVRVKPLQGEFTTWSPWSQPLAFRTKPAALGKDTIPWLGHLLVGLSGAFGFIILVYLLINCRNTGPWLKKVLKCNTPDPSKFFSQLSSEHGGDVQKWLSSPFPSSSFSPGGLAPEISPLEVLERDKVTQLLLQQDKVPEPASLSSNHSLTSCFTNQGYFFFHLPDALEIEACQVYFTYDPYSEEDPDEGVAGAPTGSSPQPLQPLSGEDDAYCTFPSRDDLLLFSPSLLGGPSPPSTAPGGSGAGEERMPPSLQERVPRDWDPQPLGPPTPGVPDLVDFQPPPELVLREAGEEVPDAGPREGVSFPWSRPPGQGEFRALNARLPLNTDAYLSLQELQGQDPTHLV
T3 sequence (looked up) 3: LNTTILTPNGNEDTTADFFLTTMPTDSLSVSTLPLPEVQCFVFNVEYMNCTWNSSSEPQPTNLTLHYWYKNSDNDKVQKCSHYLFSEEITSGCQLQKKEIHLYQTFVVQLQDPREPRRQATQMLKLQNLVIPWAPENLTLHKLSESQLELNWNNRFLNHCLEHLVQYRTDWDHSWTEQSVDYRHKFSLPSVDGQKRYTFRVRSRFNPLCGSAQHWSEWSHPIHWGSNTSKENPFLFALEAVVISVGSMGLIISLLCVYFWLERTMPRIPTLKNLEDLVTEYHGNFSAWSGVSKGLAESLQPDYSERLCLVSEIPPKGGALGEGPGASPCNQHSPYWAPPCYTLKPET

B1: Ald_S4pAMF(PEG1)/R37A/F41K (CON1) (ligand)
chain: PTS[pAMF]([DBCO‑triazole-mPEG 30 kDa])STKKTQLQLEHLLLDLQMILNGINNYKNPKLTAMLTKKFYMPKKATELKHLQCLEEELKPLEEVLNLAQSKNFHLRPRDLISNINVIVLELKGSETTFMCEYADETATIVEFLNRWITFSQSIISTLT
modifications: not fully specified (bridges)
notes: also called Des-A1_IL-2_S4pAMF(PEG1)/R37A/F41K/C124S
With B1 the “KD/KD (human)” value [1] was 1.2 ratio, the Kd [1] was 5400 nM and the “KD/KD (human)” value [2] was 1 ratio. The Kd [2] was 4400 nM, the “Kit225-STAT5 EC50” value [3] was 0.45 nM and the “Kit225-STAT5 EC50 Fold-change” value [3] was 437 fold. For the same binder, the “NK-92 EC50 Fold-change” value [3] was 117 fold and the “NK-92 proliferation EC50” value [3] was 0.68 nM.
